{"source": "paper PMC12748981", "target": "GST-NUPR1 (UniProt O60356)", "sequence (O60356 whole entry)": "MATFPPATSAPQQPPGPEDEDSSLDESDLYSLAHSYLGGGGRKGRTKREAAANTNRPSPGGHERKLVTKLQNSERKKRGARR", "assay": "SPR", "conditions": "VHH"}
{"substance": "sdAb#07.81-3xFlag-cOdc1-Tat-6xHis (from UniProt P00860)", "values": [{"measurement": "Kd", "value": 0.307, "unit": "µM"}]}
